Data taken from the nanobody polyreactivity screen of Harvey et al. (2022).

experiment: yeast display, Sf9 membrane polyspecificity reagent, FACS + sequencing; frameworks hold sequencing errors
How it was run: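 A nanobody's polyreactivity label depends on the gate it was sorted from. Yeast display cells were stained with 10% biotinylated, detergent-solubilized Sf9 membrane reagent for 1 hour at 4 °C, enriched on streptavidin microbeads and sorted by FACS. The low and high (top ~1%) gates were set on anti-HA fluorescence for expression and streptavidin fluorescence for reagent binding.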

Question: Which “polyreactivity (PSR sort gate)” value does the source give for “QVQLVESGGGLVQAGGSLRLSCAASGSIFGTNAMGGYRQAPGKERELVAAIRGSGGRTYYADSVKGRFTISRDKAKNTVYLEMNSLKPEDSAVYYCAAPGNPYCWGYNYYYWGQGTQVTVSS” here?
Answer: high polyreactivity

Question: For “QVQLVESGGGLVQAGGSLRLSCAASGSIFGTNAMGWYRQAPGKERELVAAIRGSGGRTYYADSVKGRFTISRDNAKNTVYLQMNSLKPEDTAVYYCAARWGPYYGGVRYGYWGQGTQVTVSS”, which “polyreactivity (PSR sort gate)” value is on record?
Answer: high polyreactivity

Question: With “QVQLVESGGGLVQAGGSLRLSCAASGSIFGTNVMGWYRQAPGKERELVAAITASGSRTYYADSVKGRFTISRDNAKNTVYLQMNSLKPEDTAVYYCATVSRFGFKDFDYWGQGTQVTVSS” as the sequence, how does the “polyreactivity (PSR sort gate)” value read?
Answer: high polyreactivity

Question: Which “polyreactivity (PSR sort gate)” value does the source give for “QVQLVESGGGLVQAGGSLRLSCAASGSIFGTYAKGWYRQAPGKERELVADISLSGGSTYYADSVKGRFTISRDTAKKSVYLQMNSLKPEDNAVYYCNAESTAYGYVAVYRYDYWGQGTQVTVSS” here?
Answer: low polyreactivity

Question: Which “polyreactivity (PSR sort gate)” value does the source give for “QVQLVESGGGLVQAGGSLRLSCAASGSIFGTYAMGWYRQAPGKERELVAAITGRDGITYADSVKGRFTISCDNAKNTVYLQMNSLKPEDTAVYYCAAVSHGVYYQYRRRYYSWGQGTQVTVSS” here?
Answer: high polyreactivity

Question: With “QVQLVESGGGLVQAGGSLRLSCAASGSIFGTYAMGWYRQAPGKERELVAAITGSGGRTYYADSVKGRFTISRDNAKNTVYLQLNSLKPEDTAVYYCNKVVYVRSYPPRYDYWGQGTQVTVSS” as the sequence, how does the “polyreactivity (PSR sort gate)” value read?
Answer: high polyreactivity

Question: For “QVQLVESGGGLVQAGGSLRLSCAASGSIFGTYAMGWYRQAPGKERELVARISGGGSTYYADSVKGRFTISRDNAKNTVYLQMNSLKPEDTAVYYCNVRKWAYCSHAIIYNYWGQGTQVTVSS”, which “polyreactivity (PSR sort gate)” value is on record?
Answer: high polyreactivity

Question: Which “polyreactivity (PSR sort gate)” value does the source give for “QVQLVESGGGLVQAGGSLRLSCAASGSIFGTYAMGWYRQAPGKEREMVARITSGGSTNYADSVKGRFTISRDNAKNTVFLQMNSLKPEDTAVYYCAARQYHWYLPSYWYRYDYWGQGTLVTVSS” here?
Answer: high polyreactivity

Question: With “QVQLVESGGGLVQAGGSLRLSCAASGSIFGVNAMGWYRQAPGKERELVADITKSTGDTYADSVKGRFTISRDNAKNTVYLQMNSLKPEDTAVYYCNARFTVKQKRLYLYDYWGQGTQVTVSS” as the sequence, how does the “polyreactivity (PSR sort gate)” value read?
Answer: low polyreactivity

Question: For “QVQLVESGGGLVQAGGSLRLSCAASGSIFGVNYMGWYRQAPGKERELVAGLSSSGGSTYYADSVKGRFTISRDNAKNTVYLQMNSLKPEDTAVYDCAATQSRYYSDDPYYYWGQGTQVTVSS”, which “polyreactivity (PSR sort gate)” value is on record?
Answer: low polyreactivity

Question: For “QVQLVESGGGLVQAGGSLRLSCAASGSIFGVYAMGWYRQAPGKERELVAAISWSGTSTYYADSVKGRFTISRDNAKNTVYLQMNSLKPEDTAVYYCNGDWVLDGYDYDSWGQGTQVTVSS”, which “polyreactivity (PSR sort gate)” value is on record?
Answer: low polyreactivity

Question: With “QVQLVESGGGLVQAGGSLRLSCAASGSIFGVYTMGWYRQAPGKERELVAAITRSGGSTYYADSVKGRFTISRDNAKNTVYLQMNSLKPEDTAVYYCAARRAYVWCSQGYAHFEYWGQGTQVTVSS” as the sequence, how does the “polyreactivity (PSR sort gate)” value read?
Answer: high polyreactivity

Question: Which “polyreactivity (PSR sort gate)” value does the source give for “QVQLVESGGGLVQAGGSLRLSCAASGSIFGWYAMGWYRQAPGKDWELVAASRRGGSTNYADSVKGRFTISRDNAKNTVYFQMNSLIPEATAVYYCAAGKSGYSKRIFRYSFDYWGQGTQVTVSS” here?
Answer: high polyreactivity

Question: For “QVQLVESGGGLVQAGGSLRLSCAASGSIFGWYAMGWYRQAPGKERELVAAIDSATSTYYADSVKGRFTISRDNAKNTVYLQMNSLKPEDTAFYYCAAVQLYQKHQITYVAHEYWGQGTQVTVSS”, which “polyreactivity (PSR sort gate)” value is on record?
Answer: low polyreactivity

Question: Which “polyreactivity (PSR sort gate)” value does the source give for “QVQLVESGGGLVQAGGSLRLSCAASGSIFGWYAMGWYRQAPGKERELVATISSGGGNTYYADSVKGRFTISRDNAKNTVYLQMNSLKPEDTAVYYCAADRTFYGIRFDYWGQGTQVTVSS” here?
Answer: low polyreactivity

Question: Which “polyreactivity (PSR sort gate)” value does the source give for “QVQLVESGGGLVQAGGSLRLSCAASGSIFGWYTMGWYRQAPGKERELVAAITWRGGTTYYADSVKGRFTISRDNAKNTVYLQMNSLKPEDTAVYYCATTRYPRSYQEFGYWGQGTQVTVSS” here?
Answer: high polyreactivity

Question: For “QVQLVESGGGLVQAGGSLRLSCAASGSIFGYNAMGWYRQAPGKEREFVAAINTSGGSTYYADSVKGSFTISRDNAKNTVYLQMYSLKPEATAVYYCAARAYSWISARYYWGLGTQVTVSS”, which “polyreactivity (PSR sort gate)” value is on record?
Answer: high polyreactivity

Question: Which “polyreactivity (PSR sort gate)” value does the source give for “QVQLVESGGGLVQAGGSLRLSCAASGSIFGYNAMGWYRQAPGKERELVAAISLTTGSTYYADSVKGRFTISRDNAKNTVYLQMNCLKPEDTAVYYCAAVDADYYYWGQGTQVTVSS” here?
Answer: high polyreactivity

Question: With “QVQLVESGGGLVQAGGSLRLSCAASGSIFGYNAMGWYRQAPGKERELVAAITSSGGSTYNADSVKGRFTISRDNAKNTVYLQMNSLKPEDTAFYYCNSRDWYIVWYDYWGQGTQVTVSS” as the sequence, how does the “polyreactivity (PSR sort gate)” value read?
Answer: low polyreactivity

Question: With “QVQLVESGGGLVQAGGSLRLSCAASGSIFGYNDMGWYRQAPGKERELVATITWGGGRTRYADSVKGRFTISRDNAKNTVYFQMNSLKPEDTAVYYCAAGYYRLWVRYDYWGQGTQVTVSS” as the sequence, how does the “polyreactivity (PSR sort gate)” value read?
Answer: low polyreactivity

Question: Which “polyreactivity (PSR sort gate)” value does the source give for “QVQLVESGGGLVQAGGSLRLSCAASGSIFGYNSMGWDRQAAGKERELVAAIYSGGNTYYADSVKGRFTISRDNAKNTVYLQMNSLKPEDTAVYYCAADGYDDSTSRWYEYWGQGSQVTVSS” here?
Answer: low polyreactivity

Question: For “QVQLVESGGGLVQAGGSLRLSCAASGSIFGYNTMGWYRKAPGKERELVAAISYRGGSTSADSVKGRFSISRDNAKNTVYLQMNSRKPEDTAVYSCATRSIVGYRYSGYDYWGQATQVTVSS”, which “polyreactivity (PSR sort gate)” value is on record?
Answer: high polyreactivity

Question: Which “polyreactivity (PSR sort gate)” value does the source give for “QVQLVESGGGLVQAGGSLRLSCAASGSIFGYNTMGWYRQAPGKERELVAAISWNGGNTYYADSVKGRFTISRDNAKNTVYLQMNSLKPEDTEVYYCNARTRSRSRGFDSWGQGTQVTVSS” here?
Answer: high polyreactivity

Question: Which “polyreactivity (PSR sort gate)” value does the source give for “QVQLVESGGGLVQAGGSLRLSCAASGSIFGYNVMGWYRQAPGKERELVATISSSGGTNYADSVKGRFTISRDNAKNTVYLQMNSLKPEDTAVYYCNADVLDGGYDYWGQGTQVTVSS” here?
Answer: low polyreactivity

Question: Which “polyreactivity (PSR sort gate)” value does the source give for “QVQLVESGGGLVQAGGSLRLSCAASGSIFGYSAMGWYRQAPGKERELVAAIDSGGSTYYADSVKGRFTISRDNAKNTVYLQMNSLKPQDTAVYYCAAGVSSFSPYDSWGQGTQVTVSS” here?
Answer: low polyreactivity

Question: For “QVQLVESGGGLVQAGGSLRLSCAASGSIFGYYAMGWYRQAPGKERELVAAISGIGGSTYYADSVKGRFTISRDNAKNTVYLQMNSLKPEDTAVYYCAKARPHVGGGGDYWGQGTQVTVSS”, which “polyreactivity (PSR sort gate)” value is on record?
Answer: low polyreactivity

Question: Which “polyreactivity (PSR sort gate)” value does the source give for “QVQLVESGGGLVQAGGSLRLSCAASGSIFGYYAMGWYRQAPGKERELVAAISGSGGSTYYADSVKGRFTISRDNAKYTVYLQMNRLKPEDTAVYYCAAAYHGRHYYWGQGTQVTVSS” here?
Answer: high polyreactivity

Question: For “QVQLVESGGGLVQAGGSLRLSCAASGSIFGYYAMGWYRQAPGKERELVADITVRGGSTYYADSVNGRFTISRDNAKNTVYLQMNSLKPEDTAVYYCAKRFKYIYYWGQGTQVTVSS”, which “polyreactivity (PSR sort gate)” value is on record?
Answer: high polyreactivity

Question: For “QVQLVESGGGLVQAGGSLRLSCAASGSIFGYYAMGWYRQAPGKERELVASITRSGGSTYYADSVKGRFTISRDNAKNTVYLQMNSLQPEDTAVYYCAVARYRHGRSGTYDVTGEYWGQGTQVTVSS”, which “polyreactivity (PSR sort gate)” value is on record?
Answer: high polyreactivity

Question: With “QVQLVESGGGLVQAGGSLRLSCAASGSIFGYYTKVWYRQARGKEREFVAAINTSGGSTYADSVKGRCTISRDNAKNTVYLQMNSLKPEDTAVYYCAADGYYEYTWGEYDSWGQGTQVTVSS” as the sequence, how does the “polyreactivity (PSR sort gate)” value read?
Answer: low polyreactivity

Question: For “QVQLVESGGGLVQAGGSLRLSCAASGSIFGYYTMGWYRPAPGKERELVAAITSGGSTNYADSVKGRFTISRDNAKNTVYLQMNSLKPEDTAVYYCAKVSYYPWRYDYWGQGTQVTVSS”, which “polyreactivity (PSR sort gate)” value is on record?
Answer: low polyreactivity

Question: With “QVQLVESGGGLVQAGGSLRLSCAASGSIFGYYTMGWYRQAPGKERELVAAISQGGARTYYADSVKGRFTISRDNAKNTVYLQMNSLKPEDTAVYYCNAVSPAGYWFDYWGQGTQVTVSS” as the sequence, how does the “polyreactivity (PSR sort gate)” value read?
Answer: high polyreactivity

Question: For “QVQLVESGGGLVQAGGSLRLSCAASGSIFGYYVMGWYRPAPGKERELVAGISYSGGRTYYADSVKGRFTISRDNAKNTVYLQMNSLQPEDTAVYYCAAEGTTSWWVKYGYWGQGTQVTVSS”, which “polyreactivity (PSR sort gate)” value is on record?
Answer: low polyreactivity

Question: With “QVQLVESGGGLVQAGGSLRLSCAASGSIFHANAMGWYRQAPGKERELVAAISQSCDTTYYADSVKGRFTISRDNAKNTVYLQMNSLKPEDTAVYYCAAEEGYGAFWYDYWGQGTQVTVSS” as the sequence, how does the “polyreactivity (PSR sort gate)” value read?
Answer: high polyreactivity

Question: Which “polyreactivity (PSR sort gate)” value does the source give for “QVQLVESGGGLVQAGGSLRLSCAASGSIFHANAMGWYRQAPGKERELVAVISQGGGSTYYADSVKGRFTISRDNAKNTVYLQMNSLKPEDTAVYYCAAYYYYSAYGDDYWGQGTQVTVSS” here?
Answer: high polyreactivity

Question: Which “polyreactivity (PSR sort gate)” value does the source give for “QVQLVESGGGLVQAGGSLRLSCAASGSIFHDNAKGWYRQAPGKERELVAAINRGGSTHYADSVKGRFTISRDNAKNTVYLQMNSLKPEDTAVYYCNTVGRGYDYDYWGQGTQVTVSS” here?
Answer: low polyreactivity

Question: Which “polyreactivity (PSR sort gate)” value does the source give for “QVQLVESGGGLVQAGGSLRLSCAASGSIFHNNAMGWYRQAPGKERELVASITSRGGSTYYADSVKGRFTISRDNAKNTVYLQMNSLKPEDTAVYYCAARPYARVKTHGYWGQGTQVTVSS” here?
Answer: low polyreactivity

Question: For “QVQLVESGGGLVQAGGSLRLSCAASGSIFHPNAMGWYRQAPGKERELVAAITKSGGSTYYADSVKGRFTISRDNAKNTVYLQMNSLKPEDTAVYYCNALRYRRVGTLGYDYWGQGTQVTVSS”, which “polyreactivity (PSR sort gate)” value is on record?
Answer: high polyreactivity

Question: For “QVQLVESGGGLVQAGGSLRLSCAASGSIFHPYAMGWYRQAPGKERELVAAISKSGGNTYYADSVKGRFTISRDNAKNTVYLQMNSLKPEDTAVYYCAALDYWGQGTLVTVSS”, which “polyreactivity (PSR sort gate)” value is on record?
Answer: low polyreactivity

Question: With “QVQLVESGGGLVQAGGSLRLSCAASGSIFHVNAMGWYRQAPGKERELVAGISDGGSTYYADSVKGRFTISRDNAKNTVYLQMNSLKPEDTAVYYCSADDGYTYYWAGYDSWGQGTQVTVSS” as the sequence, how does the “polyreactivity (PSR sort gate)” value read?
Answer: low polyreactivity

Question: With “QVQLVESGGGLVQAGGSLRLSCAASGSIFHWYVMGWYRQAPGKERELVASISWSSGSTYADSVKGRFTISRDNGKNTVYLQMNSLKPEDTAVYFCNAKTYYPPFGYWGQGTQVTVSS” as the sequence, how does the “polyreactivity (PSR sort gate)” value read?
Answer: low polyreactivity

Question: With “QVQLVESGGGLVQAGGSLRLSCAASGSIFHYNTMGWYRQAPGKERELVAAITYSGGSTYYADSVKGRYTISRDNAKNPVYLQMNSLKPEDTAVYYCAVRGPGTSTYWYHEYEYWGQGTQVTVSS” as the sequence, how does the “polyreactivity (PSR sort gate)” value read?
Answer: high polyreactivity

Question: With “QVQLVESGGGLVQAGGSLRLSCAASGSIFHYYTMGWYRQAPGKERELVAGISRSGTSTFYADSVKGRFTISRDNAKKTVYLQMNSLKPEDTAVSYCNAYSPGSYYYWPYDYWGQGTQVTVSS” as the sequence, how does the “polyreactivity (PSR sort gate)” value read?
Answer: high polyreactivity
